Data published in US20250262210A1 (TRUSTEES OF COLUMBIA UNIVERSITY IN THE CITY OF NEW YORK, published 2025).

Legend:
Assay in all cases: IP/MS, LZTR1 R810W-FLAG, U87
CRYBG1 = CRYBG1 (human, UniProt Q9Y4K1 1-2131, limits assumed)
In short: (§1)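 Extracted peptides in 3% acetonitrile/0.1% formic acid ran on a 50 cm C18 column into an Orbitrap Fusion, with MaxQuant identification and spectral counting.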

RICTOR = RICTOR (human, UniProt Q6R327 1-1708, limits assumed)
In short: as §1

RPAP1 = biological target: T1, RPAP1 (human, UniProt Q9BWH6 1-1393, limits assumed)
T1 sequence (looked up): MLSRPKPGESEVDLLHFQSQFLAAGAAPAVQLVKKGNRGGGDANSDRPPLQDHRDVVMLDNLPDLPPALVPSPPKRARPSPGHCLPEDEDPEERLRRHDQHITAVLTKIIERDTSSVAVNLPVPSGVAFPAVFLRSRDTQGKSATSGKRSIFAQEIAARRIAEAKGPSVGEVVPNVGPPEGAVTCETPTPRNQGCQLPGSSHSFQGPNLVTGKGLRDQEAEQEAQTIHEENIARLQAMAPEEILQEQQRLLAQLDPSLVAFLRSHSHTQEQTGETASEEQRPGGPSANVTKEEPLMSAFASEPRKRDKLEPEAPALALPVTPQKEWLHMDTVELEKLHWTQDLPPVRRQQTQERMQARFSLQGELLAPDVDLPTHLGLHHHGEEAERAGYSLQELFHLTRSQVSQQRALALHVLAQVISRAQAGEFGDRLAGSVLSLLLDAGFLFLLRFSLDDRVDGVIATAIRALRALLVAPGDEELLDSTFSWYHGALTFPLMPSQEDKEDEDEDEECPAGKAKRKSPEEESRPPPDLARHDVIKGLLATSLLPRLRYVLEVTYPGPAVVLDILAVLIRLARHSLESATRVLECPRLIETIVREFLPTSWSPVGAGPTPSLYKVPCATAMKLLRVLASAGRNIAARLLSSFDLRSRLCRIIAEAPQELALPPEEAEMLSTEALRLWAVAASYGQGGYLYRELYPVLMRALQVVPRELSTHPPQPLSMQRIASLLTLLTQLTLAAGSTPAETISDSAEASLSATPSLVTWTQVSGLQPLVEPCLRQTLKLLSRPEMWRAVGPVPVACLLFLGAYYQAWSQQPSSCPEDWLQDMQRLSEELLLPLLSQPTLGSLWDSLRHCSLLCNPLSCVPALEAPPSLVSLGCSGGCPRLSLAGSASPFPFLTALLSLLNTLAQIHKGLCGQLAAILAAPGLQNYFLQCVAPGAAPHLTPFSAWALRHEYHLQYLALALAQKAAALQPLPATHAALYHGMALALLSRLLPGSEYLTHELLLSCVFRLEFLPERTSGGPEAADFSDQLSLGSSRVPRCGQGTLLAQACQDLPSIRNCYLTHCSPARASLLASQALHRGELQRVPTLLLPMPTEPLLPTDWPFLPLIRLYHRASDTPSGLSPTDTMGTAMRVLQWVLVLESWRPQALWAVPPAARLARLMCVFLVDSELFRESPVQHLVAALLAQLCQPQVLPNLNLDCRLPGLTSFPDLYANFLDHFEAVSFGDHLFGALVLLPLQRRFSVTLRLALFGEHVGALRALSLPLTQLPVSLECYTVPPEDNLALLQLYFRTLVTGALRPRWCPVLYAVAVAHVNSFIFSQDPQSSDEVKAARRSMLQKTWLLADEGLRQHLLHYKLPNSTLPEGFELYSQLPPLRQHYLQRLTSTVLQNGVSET
In short: as §1

MTR = MTR (human, UniProt Q99707 1-1265, limits assumed)
Chain of MTR (Q99707 whole entry): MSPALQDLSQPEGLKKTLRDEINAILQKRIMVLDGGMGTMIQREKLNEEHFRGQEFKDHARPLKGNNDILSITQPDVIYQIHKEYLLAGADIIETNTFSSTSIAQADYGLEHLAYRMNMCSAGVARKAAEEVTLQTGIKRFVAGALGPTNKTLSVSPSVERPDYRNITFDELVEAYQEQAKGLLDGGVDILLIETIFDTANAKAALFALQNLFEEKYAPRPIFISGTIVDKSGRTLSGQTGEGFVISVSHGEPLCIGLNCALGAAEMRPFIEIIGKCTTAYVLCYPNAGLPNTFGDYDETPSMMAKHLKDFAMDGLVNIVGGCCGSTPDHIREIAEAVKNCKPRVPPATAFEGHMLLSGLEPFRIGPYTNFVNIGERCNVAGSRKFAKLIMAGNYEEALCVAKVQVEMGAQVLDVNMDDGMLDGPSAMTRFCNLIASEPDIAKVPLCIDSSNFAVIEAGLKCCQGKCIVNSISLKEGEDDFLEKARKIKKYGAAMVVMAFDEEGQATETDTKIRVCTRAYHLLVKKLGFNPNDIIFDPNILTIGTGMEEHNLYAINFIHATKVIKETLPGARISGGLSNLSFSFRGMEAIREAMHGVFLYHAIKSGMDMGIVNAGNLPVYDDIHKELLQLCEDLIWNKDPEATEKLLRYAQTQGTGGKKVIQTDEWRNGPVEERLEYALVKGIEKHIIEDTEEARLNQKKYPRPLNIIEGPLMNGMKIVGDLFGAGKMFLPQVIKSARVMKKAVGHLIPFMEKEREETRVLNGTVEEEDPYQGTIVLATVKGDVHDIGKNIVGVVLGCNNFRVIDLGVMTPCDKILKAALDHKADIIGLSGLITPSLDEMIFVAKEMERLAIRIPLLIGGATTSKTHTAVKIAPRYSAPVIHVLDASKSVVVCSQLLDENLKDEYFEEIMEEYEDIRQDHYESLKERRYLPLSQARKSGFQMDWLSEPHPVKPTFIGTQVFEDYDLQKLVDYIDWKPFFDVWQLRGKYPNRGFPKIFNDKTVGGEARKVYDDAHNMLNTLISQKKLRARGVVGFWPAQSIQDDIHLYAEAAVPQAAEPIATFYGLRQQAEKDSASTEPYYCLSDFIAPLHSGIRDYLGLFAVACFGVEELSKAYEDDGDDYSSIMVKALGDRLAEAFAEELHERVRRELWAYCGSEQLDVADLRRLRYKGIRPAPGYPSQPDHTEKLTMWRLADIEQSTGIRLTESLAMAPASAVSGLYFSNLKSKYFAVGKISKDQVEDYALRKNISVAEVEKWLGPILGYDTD
In short: as §1

RUSC2 = RUSC2 (human, UniProt Q8N2Y8 1-1516)
Chain of RUSC2 (Q8N2Y8 whole entry): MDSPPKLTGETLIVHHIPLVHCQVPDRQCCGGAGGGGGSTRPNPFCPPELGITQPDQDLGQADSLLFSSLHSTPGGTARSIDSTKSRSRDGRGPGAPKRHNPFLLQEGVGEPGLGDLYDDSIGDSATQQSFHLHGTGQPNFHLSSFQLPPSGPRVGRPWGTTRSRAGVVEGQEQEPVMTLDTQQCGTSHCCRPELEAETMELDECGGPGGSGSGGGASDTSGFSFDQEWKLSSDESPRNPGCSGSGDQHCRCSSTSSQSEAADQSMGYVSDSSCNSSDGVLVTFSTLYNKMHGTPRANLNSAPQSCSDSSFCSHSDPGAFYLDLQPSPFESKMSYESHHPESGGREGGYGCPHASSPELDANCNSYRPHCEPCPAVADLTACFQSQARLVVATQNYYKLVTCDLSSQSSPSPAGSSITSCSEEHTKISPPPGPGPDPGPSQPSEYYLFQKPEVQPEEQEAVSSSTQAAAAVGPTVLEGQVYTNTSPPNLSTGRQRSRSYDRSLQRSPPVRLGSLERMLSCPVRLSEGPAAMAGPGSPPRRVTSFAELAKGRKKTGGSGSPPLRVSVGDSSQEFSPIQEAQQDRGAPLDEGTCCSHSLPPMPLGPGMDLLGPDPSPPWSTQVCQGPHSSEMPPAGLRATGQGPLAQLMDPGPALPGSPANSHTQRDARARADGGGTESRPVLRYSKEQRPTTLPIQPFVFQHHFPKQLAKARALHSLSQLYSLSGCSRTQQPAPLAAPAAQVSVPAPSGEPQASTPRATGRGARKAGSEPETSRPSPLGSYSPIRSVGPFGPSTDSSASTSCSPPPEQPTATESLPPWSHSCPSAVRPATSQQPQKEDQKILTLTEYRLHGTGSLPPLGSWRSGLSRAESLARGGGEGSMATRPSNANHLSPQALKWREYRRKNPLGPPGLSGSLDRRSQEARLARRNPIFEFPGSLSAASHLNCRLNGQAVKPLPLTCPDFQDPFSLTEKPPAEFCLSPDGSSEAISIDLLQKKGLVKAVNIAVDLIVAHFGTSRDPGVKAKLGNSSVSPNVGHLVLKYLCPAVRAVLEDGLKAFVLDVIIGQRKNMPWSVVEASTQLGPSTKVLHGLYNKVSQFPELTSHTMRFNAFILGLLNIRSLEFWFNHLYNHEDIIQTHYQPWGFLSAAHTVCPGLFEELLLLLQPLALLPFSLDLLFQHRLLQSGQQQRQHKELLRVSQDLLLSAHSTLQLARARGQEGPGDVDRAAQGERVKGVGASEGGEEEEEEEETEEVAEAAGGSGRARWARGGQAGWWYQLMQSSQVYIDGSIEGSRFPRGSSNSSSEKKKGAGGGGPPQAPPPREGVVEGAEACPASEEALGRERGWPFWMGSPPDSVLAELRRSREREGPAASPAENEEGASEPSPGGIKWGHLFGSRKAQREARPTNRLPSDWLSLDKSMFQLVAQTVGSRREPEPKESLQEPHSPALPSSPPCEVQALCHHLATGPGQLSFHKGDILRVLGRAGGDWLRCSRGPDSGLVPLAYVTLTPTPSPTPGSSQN
In short: as §1

Measured: binding result

Chain of RICTOR (Q6R327 whole entry): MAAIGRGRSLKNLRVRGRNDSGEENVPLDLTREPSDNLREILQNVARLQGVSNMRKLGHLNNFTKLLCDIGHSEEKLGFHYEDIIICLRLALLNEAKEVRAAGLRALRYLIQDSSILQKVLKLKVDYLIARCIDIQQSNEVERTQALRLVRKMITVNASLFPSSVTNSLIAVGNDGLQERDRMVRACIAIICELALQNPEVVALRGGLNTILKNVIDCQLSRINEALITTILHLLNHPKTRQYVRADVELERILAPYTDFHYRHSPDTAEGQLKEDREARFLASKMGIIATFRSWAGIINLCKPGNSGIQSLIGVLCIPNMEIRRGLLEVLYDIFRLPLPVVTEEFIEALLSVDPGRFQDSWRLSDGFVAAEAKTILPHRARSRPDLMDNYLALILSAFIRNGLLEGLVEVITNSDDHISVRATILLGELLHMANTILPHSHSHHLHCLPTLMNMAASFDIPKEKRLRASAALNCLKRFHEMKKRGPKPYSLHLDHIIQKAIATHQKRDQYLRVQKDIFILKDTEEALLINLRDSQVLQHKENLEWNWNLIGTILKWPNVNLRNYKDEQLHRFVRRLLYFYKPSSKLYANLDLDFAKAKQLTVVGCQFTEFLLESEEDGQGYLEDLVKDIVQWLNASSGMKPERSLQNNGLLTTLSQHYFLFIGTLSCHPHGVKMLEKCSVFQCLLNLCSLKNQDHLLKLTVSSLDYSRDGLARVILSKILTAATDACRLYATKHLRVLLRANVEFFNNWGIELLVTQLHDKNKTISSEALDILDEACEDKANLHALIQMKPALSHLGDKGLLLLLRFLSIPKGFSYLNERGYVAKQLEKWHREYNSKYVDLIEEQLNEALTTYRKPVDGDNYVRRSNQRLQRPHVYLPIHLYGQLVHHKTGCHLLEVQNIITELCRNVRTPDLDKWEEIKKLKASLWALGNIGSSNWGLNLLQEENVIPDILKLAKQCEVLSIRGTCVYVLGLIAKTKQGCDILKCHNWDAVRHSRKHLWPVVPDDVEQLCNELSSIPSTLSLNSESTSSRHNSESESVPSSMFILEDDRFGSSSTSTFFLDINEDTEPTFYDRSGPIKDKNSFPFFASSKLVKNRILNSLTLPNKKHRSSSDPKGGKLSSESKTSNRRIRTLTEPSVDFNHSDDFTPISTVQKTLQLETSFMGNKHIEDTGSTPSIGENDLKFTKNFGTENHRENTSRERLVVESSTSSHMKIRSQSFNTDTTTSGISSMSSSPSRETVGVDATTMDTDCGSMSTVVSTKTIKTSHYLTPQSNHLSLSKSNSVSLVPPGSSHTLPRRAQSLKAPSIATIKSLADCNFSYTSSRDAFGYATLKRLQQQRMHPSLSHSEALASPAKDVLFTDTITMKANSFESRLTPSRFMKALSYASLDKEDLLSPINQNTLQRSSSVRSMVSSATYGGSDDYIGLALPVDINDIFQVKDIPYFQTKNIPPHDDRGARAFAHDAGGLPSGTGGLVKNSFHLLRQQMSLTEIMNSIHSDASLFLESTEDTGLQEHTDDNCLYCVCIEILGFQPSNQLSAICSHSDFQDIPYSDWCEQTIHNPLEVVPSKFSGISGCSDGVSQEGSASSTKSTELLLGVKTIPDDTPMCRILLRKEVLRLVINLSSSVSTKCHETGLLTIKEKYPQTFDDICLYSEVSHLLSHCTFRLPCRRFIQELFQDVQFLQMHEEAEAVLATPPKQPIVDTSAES

B1: LZTR1 R810W-FLAG (other, human, UniProt Q8N653 1-840, looked up)
chain: MAGPGSTGGQIGAAALAGGARSKVAPSVDFDHSCSDSVEYLTLNFGPFETVHRWRRLPPCDEFVGARRSKHTVVAYKDAIYVFGGDNGKTMLNDLLRFDVKDCSWCRAFTTGTPPAPRYHHSAVVYGSSMFVFGGYTGDIYSNSNLKNKNDLFEYKFATGQWTEWKIEGRLPVARSAHGATVYSDKLWIFAGYDGNARLNDMWTIGLQDRELTCWEEVAQSGEIPPSCCNFPVAVCRDKMFVFSGQSGAKITNNLFQFEFKDKTWTRIPTEHLLRGSPPPPQRRYGHTMVAFDRHLYVFGGAADNTLPNELHCYDVDFQTWEVVQPSSDSEVGGAEVPERACASEEVPTLTYEERVGFKKSRDVFGLDFGTTSAKQPTQPASELPSGRLFHAAAVISDAMYIFGGTVDNNIRSGEMYRFQFSCYPKCTLHEDYGRLWESRQFCDVEFVLGEKEECVQGHVAIVTARSRWLRRKITQARERLAQKLEQEAAPVPREAPGVAAGGARPPLLHVAIREAEARPFEVLMQFLYTDKIKYPRKGHVEDVLLIMDVYKLALSFQLCRLEQLCRQYIEASVDLQNVLVVCESAARLQLSQLKEHCLNFVVKESHFNQVIMMKEFERLSSPLIVEIVRRKQQPPPRTPLDQPVDIGTSLIQDMKAYLEGAGAEFCDITLLLDGHPRPAHKAILAARSSYFEAMFRSFMPEDGQVNISIGEMVPSRQAFESMLRYIYYGEVNMPPEDSLYLFAAPYYYGFYNNRLQAYCKQNLEMNVTVQNVLQILEAADKTQALDMKRHCLHIIVHQFTKVSKLPTLWSLSQQLLLDIIDSLASHISDKQCAELGADI
notes: Stably expressed in U87 cells by lentivirus; also called LZTR1-FLAG-R810W; LZTR1 RW; not shown: FLAG tag
binds: CRYBG1 | RICTOR | RPAP1 | MTR | RUSC2
